Legend:
[1] = Properties of the purified acid phosphatase; format: biochemical; details: for Temperature stability (stable up to): treatment at pH 7.0 for 30 minutes
Method: The transphosphorylation activity was measured under the following condition using inosine as the substrate. The reaction was performed at pH 5.0 at 30° C. for 10 minutes in a reaction solution (1 ml) containing 40 μmol/ml of inosine, 100 μmol/ml of sodium pyrophosphate, 100 μmol/ml of sodium acetate buffer (pH 5.0), and an enzyme. The reaction was stopped by adding 200 μl of 2 N hydrochloric acid. After that, precipitates were removed by centrifugation. Then, 5′-inosinic acid produced by the transphosphorylation reaction was quantitatively measured. The amount of enzyme to produce 1 μmol of 5′-inosinic acid per 1 minute under this standard reaction condition was defined as 1 unit.
The phosphomonoesterase activity was measured under the following condition using 5′-inosinic acid as a substrate. The reaction was performed at 30° C. for 10 minutes in a reaction solution (1 ml) containing 10 μmol/ml of 5′-inosinic acid, 100 μmol/ml of MES/NaOH buffer (pH 6.0), and an enzyme. The reaction was stopped by adding 200 μl of 2 N hydrochloric acid. After that, precipitates were removed by centrifugation. Then, inosine produced by the hydrolytic reaction was quantitatively measured. An amount of enzyme to produce 1 μmol of inosine per 1 minute under this standard reaction condition was defined as 1 unit.

[2] = 5′-inosinic acid production by purified enzyme sample at various pH; format: biochemical; details: enzyme 50 units/dl, pH 4.0, 30° C., 3 hours
Method: Sodium pyrophosphate (10 g/dl) and inosine (2 g/dl) were dissolved in sodium acetate buffers each having pH of 5.5, 5.0, 4.5, 4.0, and 3.5, to which the enzyme sample described above was added so that a concentration of 50 units/dl was obtained. The reaction mixture was incubated at 30° C. for 6 hours while maintaining each pH, and the amount of produced 5′-inosinic acid was measured along with passage of time. Produced inosinic acid contained only 5′-inosinic acid. Production of 2′-inosinic acid and 3′-inosinic acid by-products was not observed at all. The velocity of 5′-inosinic acid production was maximum at pH 5.0. However, the maximum accumulated amount of 5′-inosinic acid was higher at lower pH. The reaction condition at pH 4.0 was most efficient for production of 5′-inosinic acid, in which 5′-inosinic acid was produced and accumulated in an amount of 2.60 g/dl by performing the reaction for 3 hours.
Sodium pyrophosphate (15 g/dl) and inosine (3 g/dl) were dissolved in sodium acetate buffers each having pH of 5.5, 5.0, 4.5, 4.0, and 3.5, to which the enzyme sample described above was added so that a concentration of 50 units/dl was obtained. The reaction mixture was incubated at 30° C. for 6 hours while maintaining each pH, and the amount of produced 5′-inosinic acid was measured along with passage of time. Produced inosinic acid contained only 5′-inosinic acid. […]

[3] = phosphate ester hydrolytic reaction

B1: Acid Phosphatase Derived from Escherichia blattae: enzyme purified from cell-free extract of Escherichia blattae JCM 1650 (SEQ ID NO: 8) (protein)
chain: LALVATGNDTTTKPDLYYLKNSEAINSLALLPPPPAVGSIAFLNDQAMYEQGRLLRNTERGKLAAEDANLSSGGVANAFSGAFGSPITEKDAPALHKLLTNMIEDAGDLATRSAKDHYMRIRPFAFYGVSTCNTTEQDKLSKNGSYPSGHTSIGWATALVLAEINPQRQNEILKRGYELGQSRVICGYHWQSDVDAARVVGSAVVATLHTNPAFQQQLQKAKAEFAQHQKK
- Optimum temperature [1]: about 35 °C
- phosphate ester hydrolytic activity (phosphomonoesterase activity) higher than the transphosphorylation activity [1]: not less than 30 times
- Optimum pH [1, 3]: 6.5
- Optimum pH ([1]; transphosphorylation reaction): 5.2
- Temperature stability (stable up to) [1]: up to 40 °C
- 5′-inosinic acid produced and accumulated ([2]; sodium pyrophosphate 15 g/dl, inosine 3 g/dl): 1.56 g/dL

B2: Acid Phosphatase Derived from Morganella morganii: enzyme purified from cell-free extract of Morganella morganii NCIMB 10466 (SEQ ID NO: 4) (protein)
chain: AIPAGNDATTKPDLYYLKNEQAIDSLKLLPPPPEVGSIQFLNDQAMYEKGRMLRNTERGKQAQADADLAAGGVATAFSGAFGYPITEKDSPELYKLLTNMIEDAGDLATRSAKEHYMRIRPFAFYGTETCNTKDQKKLSTNGSYPSGHTSIGWATALVLAEVNPANQDAILERGYQLGQSRVICGYHWQSDVDAARIVGSAAVATLHSDPAFQAQLAKAKQEFAQKSQK
- Optimum temperature [1]: about 35 °C
- phosphate ester hydrolytic activity (phosphomonoesterase activity) higher than the transphosphorylation activity [1]: not less than 20 times
- Optimum pH [1, 3]: 6.5
- Optimum pH ([1]; transphosphorylation reaction): 5.2
- Temperature stability (stable up to) [1]: up to 30 °C
- 5′-inosinic acid produced and accumulated ([2]; sodium pyrophosphate 10 g/dl, inosine 2 g/dl): 2.60 g/dL

Source: patent US6355472B2, “Method for producing nucleoside-5′-phosphate ester” (Ajinomoto Co., Inc., priority 1996, dated 2002)
